Patent publication US20060172938

Test system: T1, cyclic peptide CDMWERVSRC
T1 sequence: CDMWERVSRC

Sequence of Native seprase isolated from LOX cells (chain): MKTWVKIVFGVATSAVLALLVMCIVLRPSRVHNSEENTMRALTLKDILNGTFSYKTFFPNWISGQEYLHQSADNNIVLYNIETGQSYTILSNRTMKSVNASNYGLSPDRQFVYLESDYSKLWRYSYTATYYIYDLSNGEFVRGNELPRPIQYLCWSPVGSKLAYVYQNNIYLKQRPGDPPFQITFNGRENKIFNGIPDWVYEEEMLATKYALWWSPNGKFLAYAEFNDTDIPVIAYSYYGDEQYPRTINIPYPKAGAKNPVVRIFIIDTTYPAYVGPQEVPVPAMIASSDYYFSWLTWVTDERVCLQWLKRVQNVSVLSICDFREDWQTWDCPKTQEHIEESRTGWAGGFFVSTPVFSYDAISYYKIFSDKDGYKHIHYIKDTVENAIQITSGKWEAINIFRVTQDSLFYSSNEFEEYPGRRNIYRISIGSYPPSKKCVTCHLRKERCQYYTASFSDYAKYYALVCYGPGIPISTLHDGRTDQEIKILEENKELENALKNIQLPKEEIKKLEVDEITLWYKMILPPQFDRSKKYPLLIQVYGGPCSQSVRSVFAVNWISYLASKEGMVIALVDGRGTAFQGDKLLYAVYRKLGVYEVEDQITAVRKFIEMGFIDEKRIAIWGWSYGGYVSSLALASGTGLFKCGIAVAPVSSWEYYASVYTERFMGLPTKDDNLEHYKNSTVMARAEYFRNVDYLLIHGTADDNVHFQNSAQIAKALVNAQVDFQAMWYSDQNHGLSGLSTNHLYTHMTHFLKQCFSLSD

Native seprase isolated from LOX cells
increase of the catalytic Km for Gly-Pro-pNA (Lineweaver-Burke analysis): When the concentration of CDMWERVSRC [SEQ ID NO: 3] was 62.5 mM, the catalytic Km value increased by 5 times (from 0.7 mM to 3.5 mM)
